Laboratory results: article PMC5664961 (Biochemical Journal, 2017)

Experiments:
[1] = biological target: the molecule itself; test: crystal structure; BTB domains alone, sitting-drop vapour diffusion at 20 and 4°C, data at 100 K
[2] = biological target: T1, human Cul3 N-terminal domain (NTD, residues M1-L388) with the engineered mutations I342R and L346D (human, UniProt Q13618 1-388, I342R | L346D); test: ITC; KCTD5 titrated into Cul3 in the cell; 25°C; 50 mM HEPES pH 7.5, 150 mM NaCl, 1 mM TCEP, 5% glycerol; single-binding site model; conditions: both partners purified
T1 construct: Cullin-3, human, UniProt Q13618, N-terminal domain residues M1-L388, with the stabilising mutations I342R and L346D; The methods say in general that the eluted His-tagged proteins were cleaved with TEV protease; also called Cullin3; Cul3 NTD; source: E. coli BL21(DE3)R3-pRARE2, purified (nickel-sepharose, TEV cleavage, SEC)

[3] = biological target: T1, human Cul3 N-terminal domain (NTD, …); test: ITC; KCTD protein titrated into Cul3 in the cell; 15°C; 50 mM HEPES pH 7.5, 150 mM NaCl, 1 mM TCEP, 5% glycerol; single-binding site model; conditions: both partners purified
[4] = biological target: T2, human Cul3 N-terminal domain (NTD, residues M1-L388) with the engineered mutations I342R and L346D (human, UniProt Q13618 1-388, I342R | L346D); test: ITC; KCTD protein titrated into Cul3 NTD; 15°C; 50 mM HEPES pH 7.5, 150 mM NaCl, 1 mM TCEP, 5% glycerol; single-binding site model; conditions: both partners purified
T2 construct: Cullin-3, human, UniProt Q13618, N-terminal domain residues M1-L388, with I342R and L346D introduced to stabilize the isolated Cullin-repeat domain; only the vector pNIC-CTHF is named, the tag is inferred from it; The general methods say that eluted proteins were cleaved with TEV protease; also called Cullin3; Cul3 NTD; source: E. coli BL21(DE3)R3-pRARE2, purified (nickel-sepharose, SEC)

[5] = biological target: T2, human Cul3 N-terminal domain (NTD, …); test: SEC; KCTD protein alone and mixed with Cul3 NTD at a molar ratio of 1 : 1; UV 280 nm traces; injected at 50 µM; 50 mM HEPES pH 7.5, 150 mM NaCl, 1 mM TCEP; conditions: both partners purified
[6] = biological target: the molecule itself; test: SEC-MALS; BTB domains alone, injected at 50 µM; Shodex KW-803; 50 mM HEPES pH 7.5, 150 mM NaCl, 1 mM TCEP
[7] = biological target: T2, human Cul3 N-terminal domain (NTD, …); test: ITC; KCTD5 titrated into Cul3 NTD; 25°C; 50 mM HEPES pH 7.5, 150 mM NaCl, 1 mM TCEP, 5% glycerol; single-binding site model; conditions: both partners purified
[8] = biological target: T2, human Cul3 N-terminal domain (NTD, …); test: SAXS; KCTD-Cul3 complexes co-purified over S200, ~10% more Cul3 added, 10 mg/ml injected onto Shodex KW404 at 20°C; 50 mM HEPES pH 7.5, 150 mM NaCl, 1 mM TCEP, 5% glycerol; curves compared with a 5 : 5 model; conditions: both partners purified
[9] = biological target: the molecule itself; test: as above

B1: human KCTD10 BTB domain (residues G26-E135) with F61L (domain or fragment, UniProt Q9H3F6 26-135, looked up)
chain: GTSPSSKYVKLNVGGALYYTTMQTLTKQDTMLKAMLSGRMEVLTDSEGWILIDRCGKHFGTILNYLRDGAVPLPESRREIEELLAEAKYYLVQGLVEECQAALQNKDTYE
notes: KCTD10, human, UniProt Q9H3F6, BTB domain residues G26-E135; cleaved with TEV protease by the general methods; source: E. coli BL21(DE3)R3-pRARE2, purified (nickel-sepharose, TEV cleavage, SEC); not shown: His6, N-terminal, cleaved
**Q.** With B1 as the binder, how does the “stoichiometry N” value [1] read?
**A.** The value was 4.

B2: KCTD5 BTB domain (residues G40-R145) (domain or fragment)
chain: not shown
notes: Pentamer by SEC-MALS; TEV cleavage stated in general in the methods; source: E. coli BL21(DE3)R3-pRARE2, purified (nickel-sepharose, TEV cleavage, SEC); not shown: His6, N-terminal, cleaved
**Q.** With B2 as the binder, how does the Ka [2] read?
**A.** The Ka was 1.8e+07 M⁻¹.

**Q.** What about the “stoichiometry N” value [2] of the same binder?
**A.** Its value is 0.81.

B3: SHKBP1 BTB domain (residues G18-S120) (domain or fragment, human, UniProt Q8TBC3 18-120, looked up)
chain: GEVIHLNVGGKRFSTSRQTLTWIPDSFFSSLLSGRISTLKDETGAIFIDRDPTVFAPILNFLRTKELDPRGVHGSSLLHEAQFYGLTPLVRRLQLREELDRSS
notes: TEV cleavage stated in general in the methods; source: E. coli BL21(DE3)R3-pRARE2, purified (nickel-sepharose, TEV cleavage, SEC); not shown: His6, N-terminal, cleaved
**Q.** With B3 as the binder, how does the Ka [3] read?
**A.** Its Ka is 1.15e+07 M⁻¹.

**Q.** What about the “stoichiometry N” value [3] of the same binder?
**A.** Its value is 0.92.

B4: human SHKBP1 BTB domain (residues G18-S120) (domain or fragment, UniProt Q8TBC3 18-120, looked up)
chain: B3 chain
notes: cleaved with TEV protease by the general methods; source: E. coli BL21(DE3)R3-pRARE2, purified (nickel-sepharose, TEV cleavage, SEC); not shown: His6, N-terminal, cleaved
**Q.** What does the source list for B4?
**A.** Kd [4]: 87 nM; stoichiometry N [5]: 1 KCTD : Cul3 (5 : 5)

B5: human KCTD5 BTB domain (residues G40-R145) (domain or fragment)
chain: not shown
notes: KCTD5, human, UniProt Q9NXV2, BTB domain residues G40-R145; cleaved with TEV protease by the general methods; source: E. coli BL21(DE3)R3-pRARE2, purified (nickel-sepharose, TEV cleavage, SEC); not shown: His6, N-terminal, cleaved
**Q.** How did the “stoichiometry N” value [6] turn out when B5 was run?
**A.** The value was 5.

**Q.** And the Kd [7]?
**A.** Its Kd is 55 nM.

B6: KCTD5 BTB + CTD multi-domain construct (residues G40-M234) (domain or fragment, human, UniProt Q9NXV2 40-234, looked up)
chain: GSVSKWVRLNVGGTYFLTTRQTLCRDPKSFLYRLCQADPDLDSDKDETGAYLIDRDPTYFGPVLNYLRHGKLVINKDLAEEGVLEEAEFYNITSLIKLVKDKIRERDSKTSQVPVKHVYRVLQCQEEELTQMVSTMSDGWKFEQLVSIGSSYNYGNEDQAEFLCVVSKELHNTPYGTASEPSEKAKILQERGSRM
notes: as for B3
**Q.** For B6, which Ka [2] is on record?
**A.** The Ka was 7.95e+08 M⁻¹.

**Q.** And the “stoichiometry N” value [2]?
**A.** Its value is 0.94.

B7: human KCTD5 BTB + CTD multi-domain construct (residues G40-M234) (domain or fragment, UniProt Q9NXV2 40-234, looked up)
chain: B6 chain
notes: KCTD5, human, UniProt Q9NXV2, BTB + CTD residues G40-M234; cleaved with TEV protease by the general methods; also called multi-domain KCTD5; source: E. coli BL21(DE3)R3-pRARE2, purified (nickel-sepharose, TEV cleavage, SEC); not shown: His6, N-terminal, cleaved
**Q.** B7 was tested. Which Kd [7] did it give?
**A.** Its Kd is 1 nM.

B8: human KCTD16 BTB domain (residues G16-E133) (domain or fragment, UniProt Q68DU8 16-133, looked up)
chain: GSAVPNSFPEVVELNVGGQVYFTRHSTLISIPHSLLWKMFSPKRDTANDLAKDSKGRFFIDRDGFLFRYILDYLRDRQVVLPDHFPEKGRLKREAEYFQLPDLVKLLTPDEIKQSPDE
notes: KCTD16, human, UniProt Q68DU8, BTB domain residues G16-E133; cleaved with TEV protease by the general methods; source: E. coli BL21(DE3)R3-pRARE2, purified (nickel-sepharose, TEV cleavage, SEC); not shown: His6, N-terminal, cleaved
**Q.** For B8, which “stoichiometry N” value [6] is on record?
**A.** The value was 5.

B9: KCTD13 BTB domain (residues G27-L144) (domain or fragment, human, UniProt Q8WZ19 27-144, looked up)
chain: GPAAYGLKPLTPNSKYVKLNVGGSLHYTTLRTLTGQDTMLKAMFSGRVEVLTDAGGWVLIDRSGRHFGTILNYLRDGSVPLPESTRELGELLGEARYYLVQGLIEDCQLALQQKRETL
notes: TEV cleavage stated in general in the methods; also called BACURD1; source: E. coli BL21(DE3)R3-pRARE2, purified (nickel-sepharose, TEV cleavage, SEC); not shown: His6, N-terminal, cleaved
**Q.** Which results are given for B9?
**A.** Ka [3]: 1.01e+07 M⁻¹; stoichiometry N [3]: 0.87

B10: human KCTD13 BTB domain (residues G27-L144) (domain or fragment, UniProt Q8WZ19 27-144, looked up)
chain: B9 chain
notes: KCTD13, human, UniProt Q8WZ19, BTB domain residues G27-L144; cleaved with TEV protease by the general methods; also called BACURD1; source: E. coli BL21(DE3)R3-pRARE2, purified (nickel-sepharose, TEV cleavage, SEC); not shown: His6, N-terminal, cleaved
**Q.** How did the “stoichiometry N” value [1] turn out when B10 was run?
**A.** Its value is 4.

**Q.** What about the Kd [4] of the same binder?
**A.** The Kd was 100 nM.

**Q.** And the “stoichiometry N” value [8]?
**A.** The value was 1 KCTD : Cul3 (5 : 5).

**Q.** What about the “stoichiometry N” value [9] of the same binder?
**A.** The value was 5.
